Where a chain is given by its changes, count along the chain named. Numbers in names are those of the source. Where “and” joins values, the source holds several entries; their conditions need not be identical. Identical values can stand only once.
B1: P1-077835 (P1-068744 E31S) (antibody, V domains shown)
VH: QVQLVESGGGVVQPGRSLRLSCAASGFTFSSYAMHWVRQAPGKGLEWVAHIWYDGSNKYEADSVKGRFTISRDNSKNTLYLQMNSLRAEDTAVYYCARDSGFYESYYFDEWGQGTLVTVSS
VL: EIVLTQSPATLSLSPGERATLSCRASQSVSSSYLAWYQQKPGQAPRLLIYDASNRATGIPARFSGSGSGTDFTLTISSLEPEDFATYYCQQYNSYPYTFGQGTKLEIK
B2: P1-077839 (P1-068744 E59Y) (antibody, V domains shown)
VH: B1 VH with S31E, E60Y
VL: B1 VL
B3: P1-077859 (P1-068744 H50I E100S) (antibody, V domains shown)
VH: B1 VH with S31E, H50I, E104S
VL: B1 VL
B4: P1-077847 (P1-068744 H50I E59Y) (antibody, V domains shown)
VH: B1 VH with S31E, H50I, E60Y
VL: B1 VL
B5: P1-077855 (P1-068744 E31S E59Y) (antibody, V domains shown)
VH: B1 VH with E60Y
VL: B1 VL
B6: P1-077837 (P1-068744 H50I) (antibody, V domains shown)
VH: B1 VH with S31E, H50I
VL: B1 VL
B7: P1-077843 (P1-068744 E102Y) (antibody, V domains shown)
VH: B1 VH with S31E, E110Y
VL: B1 VL
B8: P1-077863 (P1-068744 E59Y E102Y) (antibody, V domains shown)
VH: B1 VH with S31E, E60Y, E110Y
VL: B1 VL
B9: P1-077841 (P1-068744 E100S) (antibody, V domains shown)
VH: B1 VH with S31E, E104S
VL: B1 VL
B10: P1-077853 (P1-068744 E31S E102Y) (antibody, V domains shown)
VH: B1 VH with E110Y
VL: B1 VL
B11: P1-077857 (P1-068744 E31S E100S) (antibody, V domains shown)
VH: B1 VH with E104S
VL: B1 VL
B12: P1-077851 (P1-068744 E100S E102Y) (antibody, V domains shown)
VH: B1 VH with S31E, E104S, E110Y
VL: B1 VL
B13: P1-077845 (P1-068744 E31S H50I) (antibody, V domains shown)
VH: B1 VH with H50I
VL: B1 VL
B14: P1-077849 (P1-068744 E59Y E100S) (antibody, V domains shown)
VH: B1 VH with S31E, E60Y, E104S
VL: B1 VL
B15: P1-077861 (P1-068744 H50I E102Y) (antibody, V domains shown)
VH: B1 VH with S31E, H50I, E110Y
VL: B1 VL
B16: P1-072000 (P1-061029_F100fE_V102D) (antibody, human IgG1, kappa, V domains shown)
VH: EVQLVESGGGLVQPGKSLRLSCAASGFTLDDYAMHWVRQAPGKGLEWVSGINWNSANIGYADSVKGRFTISRDNAKNSLYLQMNSLRTEDTALYYCAKVPGYSGGWIDAEDDWGQGTMVTVSS
VL: not shown
notes: also called P1-072000-3; P1-72000
B17: P1-068775 (antibody, human IgG1, kappa, V domains shown)
VH: B16 VH with D30E, Y32E, N52D, A56E, N57E, G104H
VL: not shown
notes: IgG1.3; also called P1-068775-8
B18: P1-069073 (antibody, human IgG1, kappa, V domains shown)
VH: B16 VH with D30E, Y32E, N57E, D112V
VL: not shown
notes: IgG1.3
B19: P1-069059 (antibody, human IgG1, kappa, V domains shown)
VH: B16 VH with D30E, A56D, N57H
VL: not shown
notes: IgG1.3
B20: P1-069061 (antibody, human IgG1, kappa, V domains shown)
VH: B16 VH with D30E, N57E
VL: not shown
notes: IgG1.3
B21: P1-061015 (antibody, V domains shown)
VH: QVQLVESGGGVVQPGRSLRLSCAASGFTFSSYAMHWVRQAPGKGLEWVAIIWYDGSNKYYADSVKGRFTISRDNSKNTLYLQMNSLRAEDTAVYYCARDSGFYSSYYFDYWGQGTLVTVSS
VL: B1 VL
notes: captured on a Protein A chip; also called parental antibody
B22: P1-068748 (antibody, V domains shown)
VH: B1 VH with S31H, Y32H, H50I, K58D, Y59D, E60Y, E104D, E110Y
VL: B1 VL
notes: captured on a Protein A chip

Each binder was assayed against T1, hVISTA-ECD 6-His tag (human, UniProt Q9H7M9 33-193) (assay: SPR 37 C, Ab on Protein A, pH 6.0).
T1 construct: also called monovalent hVISTA-ECD; human VISTA
T1 sequence (Q9H7M9 other isoform, or with tags, fused parts or gaps limits assumed): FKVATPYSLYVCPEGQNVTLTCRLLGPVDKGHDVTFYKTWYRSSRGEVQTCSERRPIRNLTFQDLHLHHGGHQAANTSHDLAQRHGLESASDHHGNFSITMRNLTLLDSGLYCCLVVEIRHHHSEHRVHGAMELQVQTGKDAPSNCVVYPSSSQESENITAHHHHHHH

| Binder | Kd [nM] | koff [s⁻¹] | kon [M⁻¹ s⁻¹] |
| --- | --- | --- | --- |
| B1 | 7.7 | 0.0017 | 220000 |
| B2 | 85 | 0.054 | 630000 |
| B3 | 2.3 | 0.0032 | 1.4e+06 |
| B4 | 2.7 | 0.0032 | 1.2e+06 |
| B5 | 36 | 0.0077 | 210000 |
| B6 | 2.5 | 0.003 | 1.2e+06 |
| B7 | 33 | 0.0048 | 150000 |
| B8 | 130 | 0.017 | 140000 |
| B9 | 200 | 0.11 | 520000 |
| B10 | 18 | 0.0019 | 110000 |
| B11 | 120 | 0.097 | 820000 |
| B12 | 220 | 0.085 | 380000 |
| B13 | 1.7 | 0.002 | 1.2e+06 |
| B14 | 220 | 0.11 | 500000 |
| B15 | 2.6 | 0.0023 | 870000 |

These binders were tested against T1, hVISTA-ECD 6-His tag (assay: SPR 37 C, Ab on Protein A, pH 7.4).

| Binder | Kd [nM] | koff [s⁻¹] | kon [M⁻¹ s⁻¹] |
| --- | --- | --- | --- |
| B1 | 660 | 0.026 | 39000 |
| B2 | 1300 | 0.093 | 71000 |
| B3 | 9.5 | 0.0044 | 460000 |
| B4 | 29 | 0.0035 | 120000 |
| B5 | 5200 | 0.061 | 12000 |
| B6 | 26 | 0.0033 | 130000 |
| B7 | 2000 | 0.034 | 18000 |
| B8 | 1100 | 0.055 | 63000 |
| B9 | 910 | 0.3 | 330000 |
| B10 | 1200 | 0.024 | 21000 |
| B11 | 520 | 0.16 | 300000 |
| B12 | 2200 | 0.3 | 150000 |
| B13 | 14 | 0.0038 | 280000 |
| B14 | 6600 | 0.35 | 53000 |
| B15 | 26 | 0.0027 | 100000 |

Each binder was assayed against T1, hVISTA-ECD 6-His tag (assay: SPR, Ab on Protein A, hVISTA analyte, pH 6.9).
Protocol: Further binding kinetic experiments were performed at various pHs on VISTA antibodies described herein by SPR as generally described in Example 9 above. Antibodies were normalized to 50 nM concentration in PBST pH 7.4 and captured on a Protein A CM5 chip (ID 4931) by injecting for 45 seconds at a 5 µL/min flow rate. An 8-point human VISTA titration ([…]) was prepared in PBST at pH 7.4, 6.9, 6.45, and 6.0. Titrations were injected over the captured antibodies for 180 seconds at 30 µL/min. Sensorgrams were fit to a 1:1 binding model in T200 evaluation software and the kinetic constants were reported.
Each table reports the data at one of the four tested pHs (7.4, 6.9, 6.45, and 6.0, respectively). The 8-point hVISTA titration used in these assays was chosen to provide increased confidence in kinetic values reported at neutral pH conditions. A relatively stringent cutoff for non-binding was applied in this assay. Certain progeny of P1-061029 antibody (P1-068757, ‘759, ‘765, ‘771, and ‘775) show no binding to hVISTA at micromolar concentrations at pH 7.4, while ‘761 and ‘767 show no binding to hVISTA at 100 nM at pH 7.4 but do show binding to hVISTA at micromolar concentrations.

| Binder | Kd | koff [s⁻¹] | kon |
| --- | --- | --- | --- |
| B16 | 280 nM and 250 nM | 0.011 | 39000 M⁻¹ s⁻¹ and 42000 M⁻¹ s⁻¹ |

These binders were tested against T1, hVISTA-ECD 6-His tag (assay: SPR, Ab on Protein A, hVISTA analyte, pH 6.0).

| Binder | Kd | koff | kon |
| --- | --- | --- | --- |
| B16 | 11 nM and 5.8 nM | 0.0027 s⁻¹ and 0.0026 s⁻¹ | 250000 M⁻¹ s⁻¹ and 450000 M⁻¹ s⁻¹ |

What follows are binders tested against T1, hVISTA-ECD 6-His tag (assay: SPR, Ab on Protein A, hVISTA analyte, pH 6.45).

| Binder | Kd | koff | kon |
| --- | --- | --- | --- |
| B16 | 47 nM and 27 nM | 0.0053 s⁻¹ and 0.0044 s⁻¹ | 110000 M⁻¹ s⁻¹ and 160000 M⁻¹ s⁻¹ |

The binders below were run against T2, monovalent hVISTA-ECD (amino acids 32-193 of SEQ ID NO: 1 with a 7xHis tail) (human, UniProt Q9H7M9 33-193) (assay: SPR 37C, Ab on Protein A, hVISTA-ECD 50-5 nM, pH 6.0, average).
T2 construct: analyte of the SPR assays; also called huVISTA-His; human VISTA-ECD
Protocol: Binding of several preparations of each of the ‘029 progeny clones and of the parent ‘029 antibodies, formatted as IgG1.3 antibodies, to human VISTA at pH 6.0 and 7.4 was measured by Surface plasmon resonance (SPR). SPR analysis was performed to measure koff and KD binding affinity measurements for VISTA Abs at acidic and neutral pHs using a Biacore® T100 instrument (GE Healthcare). […] Antibodies were diluted to 25 nM in PBST pH 7.4, and were captured across active biosensor flow cells at 5 ul/min for 60 seconds. A concentration series of 50 - 5 nM monovalent hVISTA-ECD (SEQ ID NO: 325) was prepared in pH 7.4 and 6.0 running buffers, and was injected over the captured antibodies at 40 ul/min to measure association and dissociation. Two 15 second injections of 10 mM glycine pH 1.5 were used to regenerate the Protein A capture surface between assay cycles. Rate constants ka (kₒₙ) and kd (koff) were derived from reference flow cell and 0 nM blank-subtracted sensorgrams, and were fit to a 1:1 binding model in Biacore® T200 Evaluation Software v.2.0. The affinity constant, KD was calculated as the ratio of rate constants koff/kₒₙ for each VISTA antibody.

T2 sequence (Q9H7M9 other isoform, or with tags, fused parts or gaps limits assumed): as above

| Binder | Kd [nM] | koff [s⁻¹] | kon [M⁻¹ s⁻¹] |
| --- | --- | --- | --- |
| B17 | 23 | 0.047 | 1.8e+06 |
| B18 | 9.4 | 0.0058 | 610000 |
| B19 | 4.8 | 0.0016 | 340000 |
| B20 | 2.5 | 0.0011 | 430000 |

The binders below were run against T3, monovalent hVISTA-ECD with polyhistidine tail (SEQ ID NO: 325) (human, UniProt Q9H7M9 33-193) (assay: SPR, mAb captured on Protein A chip, hVISTA injected, PBST pH 6.0, 37 C).
T3 construct: also called hVISTA-ECD 6-His tag; human VISTA
T3 sequence (Q9H7M9 other isoform, or with tags, fused parts or gaps limits assumed): as above

| Binder | Kd [nM] | koff [s⁻¹] | kon [M⁻¹ s⁻¹] |
| --- | --- | --- | --- |
| B21 | 1.9 | 0.0016 | 830000 |
| B22 | 11 | 0.0035 | 310000 |

Each binder was assayed against T3, monovalent hVISTA-ECD with … (assay: SPR, mAb captured on Protein A chip, hVISTA injected, PBST pH 7.4, 37 C).

| Binder | Kd [nM] | koff [s⁻¹] | kon [M⁻¹ s⁻¹] |
| --- | --- | --- | --- |
| B21 | 6.4 | 0.0022 | 340000 |
| B22 | 600 | 0.032 | 54000 |

Reference: patent US20230192860A1 (Bristol-Myers Squibb, published 2023)
